One molecule from publication PMC2171315 (The Journal of Cell Biology, 2005) can be followed below.

This test concerns the target GST-Nup2p (S. cerevisiae, UniProt P32499 1-720). Nature of the test: pull-down.

Chain of GST-Nup2p (P32499 whole entry): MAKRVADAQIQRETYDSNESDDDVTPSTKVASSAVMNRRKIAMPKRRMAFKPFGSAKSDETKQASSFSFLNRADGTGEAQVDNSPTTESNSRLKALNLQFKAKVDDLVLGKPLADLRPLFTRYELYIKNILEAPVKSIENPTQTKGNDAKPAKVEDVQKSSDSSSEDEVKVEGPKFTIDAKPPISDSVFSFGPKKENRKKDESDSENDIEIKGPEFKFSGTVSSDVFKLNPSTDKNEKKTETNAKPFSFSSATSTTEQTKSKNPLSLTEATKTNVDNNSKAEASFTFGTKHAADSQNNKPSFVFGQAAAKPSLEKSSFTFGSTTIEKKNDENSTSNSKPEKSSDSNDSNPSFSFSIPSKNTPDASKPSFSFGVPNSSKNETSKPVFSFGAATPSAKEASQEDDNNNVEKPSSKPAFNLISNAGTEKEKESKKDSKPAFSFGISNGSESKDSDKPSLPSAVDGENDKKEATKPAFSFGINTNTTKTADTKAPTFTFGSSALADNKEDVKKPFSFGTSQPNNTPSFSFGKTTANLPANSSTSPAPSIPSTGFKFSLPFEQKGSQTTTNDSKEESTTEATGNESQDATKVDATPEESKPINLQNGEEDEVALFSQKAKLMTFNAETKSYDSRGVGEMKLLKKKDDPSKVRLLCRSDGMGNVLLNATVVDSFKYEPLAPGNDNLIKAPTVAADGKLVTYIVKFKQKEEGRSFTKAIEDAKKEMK

B1: Bacterially expressed and purified Prp20p (natural protein)
chain: MVKRTVATNGDASGAHRAKKMSKTHASHIINAQEDYKHMYLSVQPLDIFCWGTGSMCELGLGPLAKNKEVKRPRLNPFLPRDEAKIISFAVGGMHTLALDEESNVWSWGCNDVGALGRDTSNAKEQLKDMDADDSSDDEDGDLNELESTPAKIPRESFPPLAEGHKVVQLAATDNMSCALFSNGEVYAWGTFRCNEGILGFYQDKIKIQKTPWKVPTFSKYNIVQLAPGKDHILFLDEEGMVFAWGNGQQNQLGRKVMERFRLKTLDPRPFGLRHVKYIASGENHCFALTKDNKLVSWGLNQFGQCGVSEDVEDGALVTKPKRLALPDNVVIRSIAAGEHHSLILSQDGDLYSCGRLDMFEVGIPKDNLPEYTYKDVHGKARAVPLPTKLNNVPKFKSVAAGSHHSVAVAQNGIAYSWGFGETYAVGLGPFEDDTEVPTRIKNTATQDHNIILVGCGGQFSVSGGVKLSDEDAEKRADEMDD
As to B1, the binding result is reported as “binds”.
